Results published in the nanobody polyreactivity screen of Harvey et al. (2022).

Assay: yeast display, Sf9 membrane polyspecificity reagent, FACS + sequencing; frameworks hold sequencing errors
Method in brief: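 Using colony PCR, genes from sorted yeast display clones were amplified, then sequenced on MiSeq at 2 × 250 and filtered by CDR length. The clones had been stained with 10% biotinylated, detergent-solubilized Sf9 membrane reagent for 1 hour at 4 °C and sorted by FACS into low and high (top ~1%) gates on anti-HA and streptavidin fluorescence. Polyreactivity labels come from the gate of origin.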

| Sequence | polyreactivity (PSR sort gate) |
| --- | --- |
| QVQREESGGGLVQAGGSLRLSCAASGNIFYQYAMGWYRLAPGKEREFVAAISISGTSTYADSVKGRFTISRDNAKNTVYLQMNSLKPVDTAVYWGQGTQVTVSS | low polyreactivity |
| QVQREESVGGLVQAGVSLRLSCAASGLTLAPYAMGAYRQAPGKERELVAAITFSGGSTYYADSVKGRFTISRDNAKNTVYLQMNSLKPEDTAVYYCARDTWAYKYVYPYYSWGQGTQVTVSS | low polyreactivity |
| QVQRLESAGGLVQAGGSLRLSCAASGFIFSYYAMGWYRQAPGKERELVAAIDGSGGSTYYADSVKGRFTISRDNAKNTVYLQKNSLKPEDTAVYYCNTLIYIQGLGYDYGGQGTQVTVSS | high polyreactivity |
| QVQRVESAGGLVQAGGSLRLSCAASGFIFSWYAMGWYRQAPGKERELVAAIRWSSGRTYYADSVKGRFTISRDNAKNTVYVQMNSLKPEDTAVYYCNARSDIHNSYDYWGQGTQVTVSS | high polyreactivity |
| QVQRVESGGGIDQAGGSLRLSCAASGLTFSIYAIGWYRQAPGKERDLVDAISWSGGSTYYADSVKGRFTISRDNAKNTVYLQMISLKPEVTAVYYCAARVYRPWWRYDYWGQGTQVSVSS | high polyreactivity |
| QVQRVESGGGIVQAGGSLRLSCAASRRIFPYYALGWYRQSPGKERELVAAISQSDGSTYYADSVKGRFTISRDNAKNTVYLQMNSLKPEDTAVYYWAKRQASYTKHRKGRGDYWGQGTQVTVSS | low polyreactivity |
| QVQRVESGGGIVQAGGSLRLSSAASGSIYLYHAMGWYRPERGKERQLVAAIRSGGITYYADSVKGRFTISRDNAKNTVYLQMYSLKPEDTADYYCAAKFYWKGTPKKYYYWGQGTQETVSS | high polyreactivity |
| QVQRVESGGGLDQAGGSLRLSCAAYGRTFGLNAMGWYRQAPGKESELVAVISFGDGGKYYADSVKGRFTISRDNAKHTVYLQMNSLKPEDTAVYYCATEYQSTSVWGGHLVINPYDYWGQGTQVTVSS | low polyreactivity |
| QVQRVESGGGLFQAGGSLRLSCAASGFIFASYTMGWYRQAPGKERELVAAISRAGSTYYADSVKGRFTITRDNAKNTVYFQMNSLKPEDTAVYYCNAVSWRTSRYDYWGQGTQVTVSS | high polyreactivity |
| QVQRVESGGGLFQAGRSLRLSCAASGFIFSTYAMGWYRQAPGKERELVAAISSGGSTYYADSVKGRFTISRDNAKNTVYLQMNSLKPEDTAVDYCAADLGAYWFSYYYWGQGTQLTVSS | high polyreactivity |
| QVQRVESGGGLVQAGASLRLSCAASGGIFYRNAMLWYRQAPGKERELVAAISRRAGSTYYADSVKGRFTISRDNAKNTVYLQMNSLKPEDTAVYYCARRVVNVGDADREYWGQGTQVTVSS | high polyreactivity |
| QVQRVESGGGLVQAGASLRLSCSASGSTFYSNAMGWYRQAPGKERELVAAISGSGGRTYYADSVKGRFTISRDNEKKTVYLQMNSLKPEETAVYFCAVERTRSMGYWGQGTQVTVSS | high polyreactivity |
| QVQRVESGGGLVQAGGRLRISCAASGRTFRGNDMGWYRQAPGKERELVPTITRNGGSTRYADSVKGRFTISRDNAKNTVYLQMNSLQPEDTAVYYCAAREKYTPALEVEYWGQGTQVTVSS | high polyreactivity |
| QVQRVESGGGLVQAGGRLRLSFAASGFIFYAMGWYRQAPGKERELVAAITLSDGTTYYADSVKGRFTISRDNAKNTVYLQLNSLKPEDTAVYYCAAEYSVPYRGWDGYEYWGQGTQVTVSS | low polyreactivity |
| QVQRVESGGGLVQAGGSLLLSCAASGRIFYRSAMGWYRQAPGKESELVASISWSGGSTYYADSVKGRFTISRDNAKNTVYLQMNSLKPEDTAVYYCAARSYRYSYRYRAFDYWGQGTQVTVSS | high polyreactivity |
| QVQRVESGGGLVQAGGSLRISCAASGSITWYYSMGWYRQAPGKERELFAAISDSGGDKYYADSVKGRFTISRDNAKNTVYLQMNSLKPEDTAVYYCNARYSWYGTFGGDYWGQDTQVTVSS | low polyreactivity |

| Sequence | polyreactivity (PSR sort gate) |
| --- | --- |
| QVQRVESGGGLVQAGGSLRLSCAASASIFASYAMGWYRQAPGKERELVASISRGGGTTYADSVKGRFTISRDNAKNTVYLQMNSLKPDDTAVYYCAARKVIRYRPYGYWGQGTQVTVSS | high polyreactivity |
| QVQRVESGGGLVQAGGSLRLSCAASASTIVIKAMGCYRQAPGKARELVADLDYRGGSTNYADSVKGRFTISRDNAKNTVYLQMNSLKPEDTAVYYFNKRYVIRRRGYDYWGQGTQVTVSS | low polyreactivity |
| QVQRVESGGGLVQAGGSLRLSCAASGFTIGSYAMGWYRQAPGKERELVAAITRRGGSTYYADSEKGRYTISRDNAKNTVSLQMNSLKPEDTAVYYCGKRSRDYVSSFRTSHANDYWGQGTQVTVSS | high polyreactivity |
| QVQRVESGGGLVQAGGSLRLSCAASGFTLLPNAMGWYRQAPGKETELVAAITASGGRTYYADSVKGRFTISRDNAKNTVYLQMNSLKPEDTAVYSCNADWQDDLAGYDVDYWGQGTQVTGSS | low polyreactivity |
| QVQRVESGGGLVQAGGSLRLSCAASGFTSLIYAMGWYRQAPGKESELVATITWGGGSTYADSVKGRFTISRDNAKNTVYLQMNSLKPEDTAVFYCIADIYDSWDYATVYSDRYDYWGQGTQVTVSS | low polyreactivity |
| QVQRVESGGGLVQAGGSLRLSCAASGGTFAFNTMGWYRQAPGIERELVADISSGGSTNYADSVKGRFTISRDNAKNTVYLQMNRLKPVDSAVYYGNGGWDILYLQGDLDYWGQGTQVTVSS | low polyreactivity |
| QVQRVESGGGLVQAGGSLRLSCAASGITFKSYTMGWYRPAPGKERELVAANTASGGTTRYADSVKGRFTISRDNAKKTVYLQMNSLKPEDTAVYYCNALPFRYGKRRGYWGQGTQVTVSS | low polyreactivity |
| QVQRVESGGGLVQAGGSLRLSCAASGITFYPYTMGWYRQAPGKQRELVAAISSSGGSTNYADSVKGRFTISRDNAKNSDYLQMISLKPDDSAVYYCAKRYAGNASSDGDSWGQGTQVTVSS | low polyreactivity |
| QVQRVESGGGLVQAGGSLRLSCAASGLTFSYNAMGWYRQAPGKERELVAAITVSGGRTYYADSVKGRFTISRDNAKNTVYLQMNSLKPEDTAVYYCNADYDEGYYGYLRYDYDYWGQGTQVTVSS | high polyreactivity |
| QVQRVESGGGLVQAGGSLRLSCAASGNNVMGWYRQAPGKERELVAAISWSGTSTYADSVKGRFTISRDNAKNTVYIQMNSLKPEDTAVYYCAAEQQGRKYRASRRYDYWGQGTQVTVSS | low polyreactivity |
| QVQRVESGGGLVQAGGSLRLSCAASGRIFALYARGWYRQAPGKEREWVAAISWSGGSTFYADSVKGRFTSSRDTAKNTVYLQMTSLKPEEPAVYYCNKDHLVYPSEFYYWGQGTQVTVSS | low polyreactivity |
| QVQRVESGGGLVQAGGSLRLSCAASGRIFEYYAMGWSRQAPGKERELVAAINTGGNTYYADSVKGRFTISRDNAKNTVYLQMNSLKPEDTAVYYCATYPIWYGGYLSGTDYDYWGQGTQVTVSS | low polyreactivity |
| QVQRVESGGGLVQAGGSLRLSCAASGRIFGGYAMGWYRQAPGKERELVAGITIGGRTNYADSVKGRFTISRDNAKNTVYLQMNSLKPEDTAVYYCNTDLTGLDAEYDYWGQGTQLTVSS | low polyreactivity |
| QVQRVESGGGLVQAGGSLRLSCAASGRIFGYNAMGWSRPAPGKERELVASISRDGDRTYYADSVKGRVTISRDNAKNTVYLQMNSLKPEDTAVDYCATRQYRYGYLYDYWAQGTQVTVSS | high polyreactivity |
| QVQRVESGGGLVQAGGSLRLSCAASGRIFPSNAMGWYRQAPGKERELVAGINTRSGRTYYADSVKGRFTNSRDNAKKTDYLQLNSLKPEDTAVYYCAAARAWPLNYWYVPYDYWGQGTQVTVSS | high polyreactivity |
| QVQRVESGGGLVQAGGSLRLSCAASGRNFTRYAMGWYRQAPGKERELVASISRRGGSTYYADSVKGRFTISRDNAKNTVYLQMNSLKPEDTAVYYCNALVIARNIEMDYWGQGTQVTVSS | high polyreactivity |
